Data taken from paper PMC9482650, “Quantitative fragmentomics allow affinity mapping of interactomes” (Nature Communications, 2022).

Assays:
Assay in all cases: holdup assay
Parameters in all cases: key: below the threshold = too weak to quantify, mostly under pKd 3.1 to 4
TJP1_2, Q07157 = molecular target: TJP1_2, Q07157
NHERF2_2, Q15599 = molecular target: NHERF2_2, Q15599
RHPN1, Q8TCX5 = molecular target: T1, RHPN1, Q8TCX5
T1 sequence (Q8TCX5 508-602, limits assumed, looked up): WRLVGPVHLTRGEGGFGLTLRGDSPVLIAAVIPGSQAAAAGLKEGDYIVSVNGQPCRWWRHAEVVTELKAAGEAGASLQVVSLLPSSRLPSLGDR

SHANK1, Q9Y566 = molecular target: T2, SHANK1, Q9Y566
T2 sequence (Q9Y566 658-767, limits assumed, looked up): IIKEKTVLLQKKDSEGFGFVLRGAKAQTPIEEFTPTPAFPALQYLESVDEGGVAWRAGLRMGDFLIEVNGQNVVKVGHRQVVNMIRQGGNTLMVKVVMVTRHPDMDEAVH

NHERF4_2, Q86UT5 = molecular target: NHERF4_2, Q86UT5
MAGI2_3, Q86UL8 = molecular target: MAGI2_3, Q86UL8
GORASP2, Q9H8Y8 = molecular target: GORASP2, Q9H8Y8
SYNJ2BP, P57105 = molecular target: T3, SYNJ2BP, P57105
T3 sequence (P57105 8-110, limits assumed, looked up): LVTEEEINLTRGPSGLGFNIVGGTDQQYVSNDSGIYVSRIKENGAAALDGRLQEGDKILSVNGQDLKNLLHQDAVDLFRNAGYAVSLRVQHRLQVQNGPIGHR

SCRIB_1, Q14160 = molecular target: SCRIB_1, Q14160
MAST1, Q9Y2H9 = molecular target: MAST1, Q9Y2H9
DLG4_1, P78352 = molecular target: DLG4_1, P78352
NHERF3_4, Q5T2W1 = molecular target: T4, NHERF3_4, Q5T2W1
T4 sequence (Q5T2W1 373-468, limits assumed, looked up): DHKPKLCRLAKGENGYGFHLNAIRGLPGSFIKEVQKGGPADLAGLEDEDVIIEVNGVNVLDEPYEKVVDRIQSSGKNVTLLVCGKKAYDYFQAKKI

DLG3_2, Q92796 = molecular target: T5, DLG3_2, Q92796
T5 sequence (Q92796 221-321, limits assumed, looked up): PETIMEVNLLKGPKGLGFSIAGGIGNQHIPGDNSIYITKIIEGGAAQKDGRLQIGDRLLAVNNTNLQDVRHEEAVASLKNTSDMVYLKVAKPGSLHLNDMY

MPP2, Q14168 = molecular target: T6, MPP2, Q14168
T6 sequence (Q14168 180-250, limits assumed, looked up): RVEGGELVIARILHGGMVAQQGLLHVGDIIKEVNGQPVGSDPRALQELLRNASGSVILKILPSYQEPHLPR

LNX2_2, Q8N448 = molecular target: T7, LNX2_2, Q8N448
T7 sequence (Q8N448 334-432, limits assumed, looked up): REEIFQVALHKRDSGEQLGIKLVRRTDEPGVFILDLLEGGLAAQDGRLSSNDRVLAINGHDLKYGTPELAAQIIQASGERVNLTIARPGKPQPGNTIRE

GORASP1, Q9BQQ3 = molecular target: GORASP1, Q9BQQ3
PTPN3, P26045 = molecular target: PTPN3, P26045
Inadl_8, Q8NI35 = molecular target: Inadl_8, Q8NI35
SNTG1, Q9NSN8 = molecular target: T8, SNTG1, Q9NSN8
T8 sequence (Q9NSN8 52-150, limits assumed, looked up): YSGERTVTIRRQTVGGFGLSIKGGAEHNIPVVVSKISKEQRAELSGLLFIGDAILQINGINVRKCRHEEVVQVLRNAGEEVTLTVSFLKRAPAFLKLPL

FRMPD3, Q5JV73 = molecular target: FRMPD3, Q5JV73
LNX1_1, Q8TBB1 = molecular target: LNX1_1, Q8TBB1
DFNB31_3, Q9P202 = molecular target: T9, DFNB31_3, Q9P202
T9 sequence (Q9P202 811-907, limits assumed, looked up): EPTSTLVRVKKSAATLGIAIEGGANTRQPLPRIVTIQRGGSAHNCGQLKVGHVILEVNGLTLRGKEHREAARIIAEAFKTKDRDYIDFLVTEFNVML

LIN7C, Q9NUP9 = molecular target: T10, LIN7C, Q9NUP9
T10 sequence (Q9NUP9 88-185, limits assumed, looked up): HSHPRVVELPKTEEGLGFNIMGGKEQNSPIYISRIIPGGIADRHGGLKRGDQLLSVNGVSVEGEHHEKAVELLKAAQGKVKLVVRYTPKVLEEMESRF

MAGI1_2, Q96QZ7 = molecular target: MAGI1_2, Q96QZ7
DLG4_2, P78352 = molecular target: DLG4_2, P78352
PDZRN4_1, Q6ZMN7 = molecular target: PDZRN4_1, Q6ZMN7
NHERF3_1, Q5T2W1 = molecular target: T11, NHERF3_1, Q5T2W1
T11 sequence (Q5T2W1 4-100, limits assumed, looked up): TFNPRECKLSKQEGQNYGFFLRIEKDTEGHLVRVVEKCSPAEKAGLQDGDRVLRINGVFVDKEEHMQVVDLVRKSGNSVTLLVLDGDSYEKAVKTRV

[1] = plain residues with an end cap or a label only (N-terminal biotin on a linker: ahx)
[2] = plain residues with an end cap or a label only (N-terminal biotin on a linker: gsgsgs; C-terminal amide)
[3] = plain residues with an end cap or a label only (N-terminal biotin on a linker: ttds)

Measured: pKd

FRMPD3, Q5JV73, sequence (Q5JV73 12-100): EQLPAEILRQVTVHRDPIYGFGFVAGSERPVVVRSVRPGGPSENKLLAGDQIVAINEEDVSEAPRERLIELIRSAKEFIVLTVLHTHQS
PTPN3, P26045, sequence (P26045 505-587): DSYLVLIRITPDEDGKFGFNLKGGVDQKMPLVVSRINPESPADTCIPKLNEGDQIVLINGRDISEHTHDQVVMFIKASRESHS
GORASP1, Q9BQQ3, sequence (Q9BQQ3 1-208): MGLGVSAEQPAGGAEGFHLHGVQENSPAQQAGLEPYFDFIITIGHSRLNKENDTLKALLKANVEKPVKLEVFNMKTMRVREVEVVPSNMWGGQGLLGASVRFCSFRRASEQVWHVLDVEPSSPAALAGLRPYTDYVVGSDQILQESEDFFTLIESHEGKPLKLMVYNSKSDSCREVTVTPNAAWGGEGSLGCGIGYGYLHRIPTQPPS
NHERF4_2, Q86UT5, sequence (Q86UT5 220-308): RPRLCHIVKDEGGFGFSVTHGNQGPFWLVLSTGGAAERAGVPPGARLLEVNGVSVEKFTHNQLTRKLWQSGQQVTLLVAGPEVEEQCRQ
MAGI1_2, Q96QZ7, sequence (Q96QZ7 456-580): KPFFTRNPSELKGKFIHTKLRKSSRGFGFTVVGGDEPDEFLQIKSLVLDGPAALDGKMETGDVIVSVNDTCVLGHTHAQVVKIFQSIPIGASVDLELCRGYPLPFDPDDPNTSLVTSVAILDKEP
SCRIB_1, Q14160, sequence (Q14160 718-814): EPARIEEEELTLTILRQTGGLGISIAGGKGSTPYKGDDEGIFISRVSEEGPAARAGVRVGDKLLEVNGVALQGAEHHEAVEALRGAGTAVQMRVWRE
NHERF2_2, Q15599, sequence (Q15599 142-238): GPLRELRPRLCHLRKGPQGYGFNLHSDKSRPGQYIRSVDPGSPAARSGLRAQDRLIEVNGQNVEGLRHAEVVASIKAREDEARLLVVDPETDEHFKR
LNX1_1, Q8TBB1, sequence (Q8TBB1 261-371): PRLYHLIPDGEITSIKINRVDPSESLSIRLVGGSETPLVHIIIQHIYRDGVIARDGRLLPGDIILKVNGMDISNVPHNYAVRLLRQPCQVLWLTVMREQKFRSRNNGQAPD
MAGI2_3, Q86UL8, sequence (Q86UL8 600-682): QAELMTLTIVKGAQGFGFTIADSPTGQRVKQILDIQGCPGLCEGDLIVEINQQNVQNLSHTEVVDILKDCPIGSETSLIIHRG
MAST1, Q9Y2H9, sequence (Q9Y2H9 962-1065): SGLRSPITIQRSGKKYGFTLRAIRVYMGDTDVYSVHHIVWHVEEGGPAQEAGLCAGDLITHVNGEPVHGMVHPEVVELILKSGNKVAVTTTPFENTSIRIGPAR
Inadl_8, Q8NI35, sequence (Q8NI35 1425-1530): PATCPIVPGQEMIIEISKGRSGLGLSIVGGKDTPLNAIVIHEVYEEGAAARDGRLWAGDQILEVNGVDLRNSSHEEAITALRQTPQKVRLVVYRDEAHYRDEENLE
DLG4_1, P78352, sequence (P78352 62-152): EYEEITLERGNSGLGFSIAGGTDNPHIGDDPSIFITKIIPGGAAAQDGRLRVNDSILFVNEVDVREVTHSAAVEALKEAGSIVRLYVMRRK
DLG4_2, P78352, sequence (P78352 155-259): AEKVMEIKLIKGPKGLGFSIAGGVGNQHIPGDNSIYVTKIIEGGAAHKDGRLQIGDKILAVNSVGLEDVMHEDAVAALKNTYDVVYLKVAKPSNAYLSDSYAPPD
PDZRN4_1, Q6ZMN7, sequence (Q6ZMN7 213-318): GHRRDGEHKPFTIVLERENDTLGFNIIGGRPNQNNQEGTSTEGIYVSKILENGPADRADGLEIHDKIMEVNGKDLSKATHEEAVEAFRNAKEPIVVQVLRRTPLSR
TJP1_2, Q07157, sequence (Q07157 181-274): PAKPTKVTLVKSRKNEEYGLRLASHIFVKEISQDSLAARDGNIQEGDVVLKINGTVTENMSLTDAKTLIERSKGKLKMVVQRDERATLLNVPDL

RRRKRKRTYL [HPV49-L2, P36762]
5.71: MAGI1_2, Q96QZ7; [1]
4.65: GORASP1, Q9BQQ3; [1]
4.81: GORASP2, Q9H8Y8; [1]
3.49: TJP1_2, Q07157; [1] | NHERF2_2, Q15599; [1]
4.32: SHANK1, Q9Y566; [1]
3.55: PDZRN4_1, Q6ZMN7; [1]
3.5: FRMPD3, Q5JV73; [1]
4.11: Inadl_8, Q8NI35; [1]
3.63: LNX1_1, Q8TBB1; [1]
3.67: SCRIB_1, Q14160; [1]
4.86: NHERF3_1, Q5T2W1; [1]
3.72: PTPN3, P26045; [1]
3.51: RHPN1, Q8TCX5; [1]
4: NHERF3_4, Q5T2W1; [1]
3.62: DLG4_1, P78352; [1]
3.74: MPP2, Q14168; [1]
4.25: DFNB31_3, Q9P202; [1]
below the threshold: NHERF4_2, Q86UT5; [1] | MAGI2_3, Q86UL8; [1] | SYNJ2BP, P57105; [1] | DLG3_2, Q92796; [1] | LNX2_2, Q8N448; [1] | SNTG1, Q9NSN8; [1] | LIN7C, Q9NUP9; [1] | DLG4_2, P78352; [1]
4.21: MAST1, Q9Y2H9; [1]

YGIVQETTFDLGGDIH [MLLT4_int, P55196]
4.21: DLG3_2, Q92796; [2]
3.85: LIN7C, Q9NUP9; [2]
3.88: PTPN3, P26045; [2]
4.3: SCRIB_1, Q14160; [2]
3.83: DFNB31_3, Q9P202; [2]
below the threshold: TJP1_2, Q07157; [2] | NHERF2_2, Q15599; [2] | RHPN1, Q8TCX5; [2] | SHANK1, Q9Y566; [2] | NHERF4_2, Q86UT5; [2] | MAGI2_3, Q86UL8; [2] | GORASP2, Q9H8Y8; [2] | SYNJ2BP, P57105; [2] | MAST1, Q9Y2H9; [2] | DLG4_1, P78352; [2] | NHERF3_4, Q5T2W1; [2] | MPP2, Q14168; [2] | LNX2_2, Q8N448; [2] | GORASP1, Q9BQQ3; [2] | Inadl_8, Q8NI35; [2] | SNTG1, Q9NSN8; [2] | FRMPD3, Q5JV73; [2] | LNX1_1, Q8TBB1; [2] | MAGI1_2, Q96QZ7; [2] | DLG4_2, P78352; [2] | PDZRN4_1, Q6ZMN7; [2] | NHERF3_1, Q5T2W1; [2]

NRKREIFSNF [NHERF2, Q15599]
below the threshold: TJP1_2, Q07157; [1] | NHERF2_2, Q15599; [1] | RHPN1, Q8TCX5; [1] | SHANK1, Q9Y566; [1] | NHERF4_2, Q86UT5; [1] | MAGI2_3, Q86UL8; [1] | GORASP2, Q9H8Y8; [1] | SYNJ2BP, P57105; [1] | SCRIB_1, Q14160; [1] | MAST1, Q9Y2H9; [1] | DLG4_1, P78352; [1] | NHERF3_4, Q5T2W1; [1] | DLG3_2, Q92796; [1] | MPP2, Q14168; [1] | LNX2_2, Q8N448; [1] | GORASP1, Q9BQQ3; [1] | PTPN3, P26045; [1] | Inadl_8, Q8NI35; [1] | SNTG1, Q9NSN8; [1] | FRMPD3, Q5JV73; [1] | LNX1_1, Q8TBB1; [1] | DFNB31_3, Q9P202; [1] | LIN7C, Q9NUP9; [1] | MAGI1_2, Q96QZ7; [1] | DLG4_2, P78352; [1] | PDZRN4_1, Q6ZMN7; [1] | NHERF3_1, Q5T2W1; [1]

RPLPRKVSQL [DOCK4, Q8N1I0]
below the threshold: TJP1_2, Q07157; [3] | NHERF2_2, Q15599; [3] | RHPN1, Q8TCX5; [3] | SHANK1, Q9Y566; [3] | NHERF4_2, Q86UT5; [3] | MAGI2_3, Q86UL8; [3] | SCRIB_1, Q14160; [3] | DLG4_1, P78352; [3] | NHERF3_4, Q5T2W1; [3] | DLG3_2, Q92796; [3] | MPP2, Q14168; [3] | LNX2_2, Q8N448; [3] | Inadl_8, Q8NI35; [3] | SNTG1, Q9NSN8; [3] | FRMPD3, Q5JV73; [3] | LNX1_1, Q8TBB1; [3] | DFNB31_3, Q9P202; [3] | LIN7C, Q9NUP9; [3] | DLG4_2, P78352; [3]
3.55: GORASP1, Q9BQQ3; [3]
4.85: GORASP2, Q9H8Y8; [3]
4.51: MAGI1_2, Q96QZ7; [3]
4.73: PTPN3, P26045; [3]
3.59: SYNJ2BP, P57105; [3]
3.5: PDZRN4_1, Q6ZMN7; [3]
3.86: MAST1, Q9Y2H9; [3]
4.21: NHERF3_1, Q5T2W1; [3]

RAVEEEESRF [PSCDBP, O60759]
5: NHERF2_2, Q15599; [1]
4.44: RHPN1, Q8TCX5; [1]
below the threshold: TJP1_2, Q07157; [1] | NHERF4_2, Q86UT5; [1] | MAGI2_3, Q86UL8; [1] | GORASP2, Q9H8Y8; [1] | SYNJ2BP, P57105; [1] | SCRIB_1, Q14160; [1] | DLG4_1, P78352; [1] | NHERF3_4, Q5T2W1; [1] | DLG3_2, Q92796; [1] | MPP2, Q14168; [1] | LNX2_2, Q8N448; [1] | GORASP1, Q9BQQ3; [1] | Inadl_8, Q8NI35; [1] | SNTG1, Q9NSN8; [1] | FRMPD3, Q5JV73; [1] | LNX1_1, Q8TBB1; [1] | DFNB31_3, Q9P202; [1] | LIN7C, Q9NUP9; [1] | MAGI1_2, Q96QZ7; [1] | DLG4_2, P78352; [1] | PDZRN4_1, Q6ZMN7; [1]
4.34: NHERF3_1, Q5T2W1; [1]
4.02: MAST1, Q9Y2H9; [1]
3.98: PTPN3, P26045; [1]
4.77: SHANK1, Q9Y566; [1]
